Laboratory results taken from article PMC10786891, “Massively parallel profiling of RNA-targeting CRISPR-Cas13d”.
Changes are numbered by the printed parent chain. Numbers in names are those of the source.

Molecular target: T1, EsCas13d, nuclease-dead (Eubacterium siraeum, UniProt B0MS50, R295A;H300A;R849A;H854A)
T1 sequence: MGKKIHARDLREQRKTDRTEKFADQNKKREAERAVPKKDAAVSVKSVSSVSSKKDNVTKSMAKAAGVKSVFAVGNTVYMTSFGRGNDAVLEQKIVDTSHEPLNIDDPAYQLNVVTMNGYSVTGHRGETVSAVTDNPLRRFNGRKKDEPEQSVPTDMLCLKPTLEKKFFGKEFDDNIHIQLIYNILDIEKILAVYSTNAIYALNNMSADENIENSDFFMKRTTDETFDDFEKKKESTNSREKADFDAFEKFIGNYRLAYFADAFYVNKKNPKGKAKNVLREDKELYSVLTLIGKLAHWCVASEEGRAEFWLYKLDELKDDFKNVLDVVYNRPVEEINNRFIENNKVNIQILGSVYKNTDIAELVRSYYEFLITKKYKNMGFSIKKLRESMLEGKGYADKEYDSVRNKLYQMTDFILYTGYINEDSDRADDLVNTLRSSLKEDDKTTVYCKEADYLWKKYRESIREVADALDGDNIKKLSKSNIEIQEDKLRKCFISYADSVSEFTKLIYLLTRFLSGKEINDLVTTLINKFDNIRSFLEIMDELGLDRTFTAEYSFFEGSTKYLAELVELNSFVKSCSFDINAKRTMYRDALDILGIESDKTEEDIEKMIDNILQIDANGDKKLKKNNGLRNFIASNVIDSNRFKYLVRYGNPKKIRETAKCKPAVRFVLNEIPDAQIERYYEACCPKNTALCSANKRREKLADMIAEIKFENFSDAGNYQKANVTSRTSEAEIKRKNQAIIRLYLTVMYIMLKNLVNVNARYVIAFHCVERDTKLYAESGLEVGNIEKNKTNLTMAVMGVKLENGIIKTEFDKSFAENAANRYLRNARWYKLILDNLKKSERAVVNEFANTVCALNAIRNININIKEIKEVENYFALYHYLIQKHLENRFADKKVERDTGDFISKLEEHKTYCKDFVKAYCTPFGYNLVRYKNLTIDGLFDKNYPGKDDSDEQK
Experiment: crRNA (strand 1, pre-loaded); Mg2+; 40 mM Tris-HCl pH 7.5, 150 mM NaCl, 6 mM MgCl2, 1 mM DTT, 0.1% Tween-20, 0.2 mg/ml BSA; 25 C; 10 min per concentration, then washed
Conditions: tags: His6-TwinStrep-SUMO cleaved; N-terminal SNAP kept (SNAP-Surface 488); label: 3' end held by stalled T7 RNA polymerase

B1: target 2 MT 5'PFS ACA 3'PFS CCG (mixed)
RNA 1: CACCCGUGCAAAAUUGCAGGGGUCUAAAACCUUCUCCAAAUUGUUUCAUCCU
RNA 2: GGGAAUGGAUCCACAUCUACGAAUUCACAAGGAUGAAACAAUUUGGAGAAGCCGAGAUCGGAAGAGCACACGU
Kd: 6.3 ± 1 nM

B2: target 2 MT 5'PFS UUU 3'PFS CCU (mixed)
RNA 1: B1 RNA 1
RNA 2: B1 RNA 2 with A27U, C28U, A29U, G54U
Kd: 52 ± 15 nM

B3: target 2 MT 5'PFS AAU 3'PFS CUU (mixed)
RNA 1: B1 RNA 1
RNA 2: B1 RNA 2 with C28A, A29U, C53U, G54U
Kd: 9.4 ± 2 nM

B4: target 2 MT 5'PFS UGC 3'PFS UGC (mixed)
RNA 1: B1 RNA 1
RNA 2: B1 RNA 2 with A27U, C28G, A29C, C52U, C53G, G54C
Kd: 64 ± 18 nM

B5: target 2 MT 5'PFS UAA 3'PFS AUC (mixed)
RNA 1: B1 RNA 1
RNA 2: B1 RNA 2 with A27U, C28A, C52A, C53U, G54C
Kd: 5.1 ± 0.5 nM

B6: target 2 MT 5'PFS AAC 3'PFS CAA (mixed)
RNA 1: B1 RNA 1
RNA 2: B1 RNA 2 with C28A, A29C, C53A, G54A
Kd: ~7 nM

B7: target 2 MT 5'PFS UAC 3'PFS CUG (mixed)
RNA 1: B1 RNA 1
RNA 2: B1 RNA 2 with A27U, C28A, A29C, C53U
Kd: 10.4 ± 1.7 nM

B8: target 2 MT 5'PFS UAC 3'PFS CUU (mixed)
RNA 1: B1 RNA 1
RNA 2: B1 RNA 2 with A27U, C28A, A29C, C53U, G54U
Kd: 7.2 ± 1.1 nM

B9: target 2 MT 5'PFS AGC 3'PFS CUA (mixed)
RNA 1: B1 RNA 1
RNA 2: B1 RNA 2 with C28G, A29C, C53U, G54A
Kd: 8.6 ± 1.5 nM

B10: target 2 MT 5'PFS AGC 3'PFS CUC (mixed)
RNA 1: B1 RNA 1
RNA 2: B1 RNA 2 with C28G, A29C, C53U, G54C
Kd: 11.5 ± 2.8 nM

B11: target 2 MT 5'PFS AAC 3'PFS CAG (mixed)
RNA 1: B1 RNA 1
RNA 2: B1 RNA 2 with C28A, A29C, C53A
Kd: 3.6 ± 0.6 nM

B12: target 2 MT 5'PFS UAA 3'PFS AUU (mixed)
RNA 1: B1 RNA 1
RNA 2: B1 RNA 2 with A27U, C28A, C52A, C53U, G54U
Kd: 3.9 ± 0.6 nM

B13: target 2 MT 5'PFS GGA 3'PFS AAG (mixed)
RNA 1: B1 RNA 1
RNA 2: B1 RNA 2 with A27G, C28G, C52A, C53A
Kd: 9.3 ± 1.4 nM

B14: target 2 MT 5'PFS UAA 3'PFS AUA (mixed)
RNA 1: B1 RNA 1
RNA 2: B1 RNA 2 with A27U, C28A, C52A, C53U, G54A
Kd: 4.3 ± 0.6 nM

B15: target 2 MT 5'PFS UAA 3'PFS AUG (mixed)
RNA 1: B1 RNA 1
RNA 2: B1 RNA 2 with A27U, C28A, C52A, C53U
Kd: 5.6 ± 1.5 nM

B16: target 2 MT 5'PFS AAU 3'PFS CCG (mixed)
RNA 1: B1 RNA 1
RNA 2: B1 RNA 2 with C28A, A29U
Kd: 5.9 ± 0.7 nM

B17: target 2 MT 5'PFS AAU 3'PFS CUC (mixed)
RNA 1: B1 RNA 1
RNA 2: B1 RNA 2 with C28A, A29U, C53U, G54C
Kd: 7.3 ± 0.8 nM

B18: target 2 MT 5'PFS AAC 3'PFS CAU (mixed)
RNA 1: B1 RNA 1
RNA 2: B1 RNA 2 with C28A, A29C, C53A, G54U
Kd: ~8 nM

B19: target 2 MT 5'PFS UAC 3'PFS CUA (mixed)
RNA 1: B1 RNA 1
RNA 2: B1 RNA 2 with A27U, C28A, A29C, C53U, G54A
Kd: 6.8 ± 1 nM

B20: target 2 MT 5'PFS UUU 3'PFS CCA (mixed)
RNA 1: B1 RNA 1
RNA 2: B1 RNA 2 with A27U, C28U, A29U, G54A
Kd: 18.1 ± 2.5 nM

B21: target 2 MT 5'PFS AGC 3'PFS CUG (mixed)
RNA 1: B1 RNA 1
RNA 2: B1 RNA 2 with C28G, A29C, C53U
Kd: 16.5 ± 3.4 nM

B22: target 2 MT 5'PFS AAC 3'PFS CAC (mixed)
RNA 1: B1 RNA 1
RNA 2: B1 RNA 2 with C28A, A29C, C53A, G54C
Kd: 6.2 ± 2 nM

B23: target 2 MT 5'PFS ACG 3'PFS CUU (mixed)
RNA 1: B1 RNA 1
RNA 2: B1 RNA 2 with A29G, C53U, G54U
Kd: 11.1 ± 2.1 nM

B24: target 2 MT 5'PFS GUG 3'PFS UAG (mixed)
RNA 1: B1 RNA 1
RNA 2: B1 RNA 2 with A27G, C28U, A29G, C52U, C53A
Kd: 13.3 ± 1.3 nM

B25: target 2 MT 5'PFS GGA 3'PFS AAA (mixed)
RNA 1: B1 RNA 1
RNA 2: B1 RNA 2 with A27G, C28G, C52A, C53A, G54A
Kd: 8.6 ± 1.9 nM

B26: target 2 MT 5'PFS GGA 3'PFS AAU (mixed)
RNA 1: B1 RNA 1
RNA 2: B1 RNA 2 with A27G, C28G, C52A, C53A, G54U
Kd: 6.7 ± 0.6 nM

B27: target 2 MT 5'PFS AGC 3'PFS CUU (mixed)
RNA 1: B1 RNA 1
RNA 2: B1 RNA 2 with C28G, A29C, C53U, G54U
Kd: 11.7 ± 1.5 nM

B28: target 2 MT 5'PFS UAC 3'PFS CUC (mixed)
RNA 1: B1 RNA 1
RNA 2: B1 RNA 2 with A27U, C28A, A29C, C53U, G54C
Kd: 16 ± 6 nM

B29: target 2 MT 5'PFS GGA 3'PFS AAC (mixed)
RNA 1: B1 RNA 1
RNA 2: B1 RNA 2 with A27G, C28G, C52A, C53A, G54C
Kd: 7.4 ± 0.7 nM

B30: target 2 MT 5'PFS AAU 3'PFS CUG (mixed)
RNA 1: B1 RNA 1
RNA 2: B1 RNA 2 with C28A, A29U, C53U
Kd: 4.2 ± 0.5 nM

B31: target 1 insU 3' of 18,insG 3' of 8 (mixed)
RNA 1: CACCCGUGCAAAAAUGCAGGGGUCUAAAACUGAGCGGAUAACCUCUCUAUGG
RNA 2: GGGAAUGGAUCCACAUCUACGAAUUCGUACCAUAUGAGAGGUUAUGCCGCUCACCGAGAUCGGAAGAGCACACGU
Kd: 41 ± 4 nM

B32: target 1 insC 3' of 20,insG 3' of 6 (mixed)
RNA 1: B31 RNA 1
RNA 2: B31 RNA 2 with U33C, A34U, U35A, G46C, C48G
Kd: 7.5 ± 0.4 nM

B33: target 1 U3G,U8A (mixed)
RNA 1: B31 RNA 1
RNA 2: GGGAAUGGAUCCACAUCUACGAAUUCGUACCAUAGAGAGGUUAACCGCGCACCGAGAUCGGAAGAGCACACGU
Kd: 12 ± 0.6 nM
